# Test results taken from US20240400663A1 (Regeneron, published 2024).
# B1: H1H29207P2 (antibody, V domains shown)
# VH: EVQLVESGGGLVQPGGSLRLSCAASGFTFSSYAMNWVRQAPGKGLEWVSAVSGSADITNYADSVKGRFTISRDNSKHTLYLQMNSLRAEDTAVYYCAKDKVYNWNYGIYYGMDVWGQGTTVTVSS
# VL: not shown
# B2: H1H29198P2 (antibody, V domains shown)
# VH: QVQLVQSGAEVKKPGASVKVSCKVSGYTLTELSMHWVRQAPGKGLEWMGGFDPEHGKIIYAQKFQGRVTMTEDTSTDTAYMELSSLRSEDTAVYYCATFYNWNSYYFGMDVWGHGTTVTVSS
# VL: not shown
# B3: H1H29127P (antibody, V domains shown)
# VH: QVQLVESGGGVVQPGRSLRLSCAASGFTFSSYGMHWVRQAPGKGLEWVAAIWYDGSNKYYADSVKGRFTISRDNSKNTLYLQMNSLRAEDTAVYFCARGEHYYGSGPFDPWGQGTLVTVSS
# VL: DIQMTQSPSSLSASVGDRVTITCRASQSISNYLNWYQQKPGKAPKLLIFAASSLQSGVPSRFSGSGSGTDFTLTISSLQPEDFATYYCQQSYSSPLTFGGGTKVEIKR
# B4: H1H29192P2 (antibody, V domains shown)
# VH: QVQLVQSGAEVKKPGASVRVSCMASGYTFTGYYMHWVRQAPGQGLEWMGWINPNSGGTKYAQKFQGRVTMTRDTSISTAYMELSRLRSDDTAVYYCAREEVDDFWSGYLDYWGQGTLVTVSS
# VL: not shown
# B5: H1H29094P (antibody, V domains shown)
# VH: not shown
# VL: DIQMTQSPSSLSASVGDRVTITCQASQDINRDLNWYQQKSGKGPKLLIYDASNLETGVPSRFSGNRFGTDFTFTISRLQPEDIATYFCQQYKNLPYTFGQGTKLEIKR
# B6: H1H29104P (antibody, V domains shown)
# VH: EVQLVESGGGLVQPGRSLRLSCAASGFRFDDYAMHWVRQAPGKGLEWVSGINWNSGGKGYADSVQGRFTISRDNAKNSLYLQMNSLRTEDTALYYCAKDRGIAARLLSRDAFDMWGQGTMVTVSS
# VL: DIQLTQSPSFLSASVGDRVTITCWASQDVSSYLAWYQQKPGKSPKLLIFAASTLQGGIPSRFSGSGSGTEFTLTISSLRPEDFATYYCQHLNTYPYTFGQGTKLEIKR
# B7: H1H29106P (antibody, V domains shown)
# VH: QVQLVESGGGVVQSGRSLRLSCAASSFTFSSYGMHWVRQSPGKGLEWVAVISYDGSNKYYGDFVRGRFTISRDNSKNTLYLQMNSLRAEDTAMYYCAREVRRYYYYGMDVWGQGTTVTVSS
# VL: not shown
# B8: H1H29196P2 (antibody, V domains shown)
# VH: EVQLVESGGDLVQPGGSLRLSCAASGFAVNGDYFSWVRQAPGKGLEWISVIYSSGNTYYADSVKGRFTISRHNSKNTLYLQMSSLRPEDTAVYYCARDFPPMSGADYWGQGTLVTVSS
# VL: not shown
# B9: H1H29109P (antibody, V domains shown)
# VH: EVQLVESGGGLVQPGRSLRLSCAVSGFTFDDYAMHWVRQAPGKGLEWVSGISWNSGDIDYADSVKGRFTISRDNAKNSLYLQMNSLRAEDTALYYCAKDTLSGTGTTWYYFDYWGQGTLVTVSS
# VL: DIQLTQSPSFLSASVGDRVTITCWASQGISSYLIWYQQKPGKAPKLLIYAASTLQSGVPSRFSGSGSGTEFTLTISSLQPEDFATYYCQQVNSYPLTFGGGTKVEIKR
# B10: H1H29209P2 (antibody, V domains shown)
# VH: QLQLQESGPGLVKPSETLSLTCTVSGGSISSRSHYWGWIRQPPGKGLEWIGSIYYSGSTYYNPSLKSRVTISVDTSKNQFSLKLSSVTAADTAVYYCARLGWYAEEAFEIWGQGTMVTVSS
# VL: not shown
# B11: H1H29214P2 (antibody, V domains shown)
# VH: QLQLQESGPGLVKPSETLSLTCTVSGGSISSSSYYWGWIRQPPGKGLEWIGSIYYSGSTYYNPSLKSRVTISVDTSKNQFSLKLSSVTAADTAVYYCARQGRWERENFDYWGQGTLVTVSS
# VL: not shown
# B12: H1H29215P2 (antibody, V domains shown)
# VH: QVQLQQWGAGLLKPSETLSLTCAVSDESFSDYYWTWIRQPPGKGLEWIGEITHSGSTHYNPSLKSRVTLSVDTSKNHFSLSLNSVTAADTAIYYCARGGDYGGLLDYWGQGTLVTVSS
# VL: not shown
# B13: H1H29143P (antibody, V domains shown)
# VH: EVQLVESGGGLVQPGGSLRLSCAASGFTFNNYAMSWVRQAPGRGLEWVSAISGSGDSTYYSDSVKGRFTISRDNSKNTLYLQMNSLRAEDTAVYYCAKDQGLYYYGSGSFDYWGQGTLVTVSS
# VL: not shown
# Molecular target: PfRH5 of Plasmodium falciparum strain Cam3.II (on live parasites) (Plasmodium falciparum)
# Assay: cell-based or functional assay
row,Binder,Max growth inhibition (%) Cam3.II [%]
1,B1,45.3
2,B2,14.7
3,B3,47
4,B4,-3.38
5,B5,26.2
6,B6,50
7,B7,51.7
8,B8,6.09
9,B9,35.9
10,B10,47.3
11,B11,46.7
12,B12,27.2
13,B13,53.2

# Molecular target: PfRH5 of Plasmodium falciparum strain W2-mef (on live parasites) (Plasmodium falciparum)
# Assay: cell-based or functional assay
row,Binder,Max growth inhibition (%) W2-mef [%]
1,B1,65.2
2,B2,-3.61
3,B3,53.6
4,B4,4.35
5,B5,34.9
6,B6,47.4
7,B7,48.9
8,B8,17
9,B9,37.9
10,B10,39.6
11,B11,52.7
12,B12,37.2
13,B13,58.3

# Molecular target: PfRH5 of Plasmodium falciparum strain 7G8 (on live parasites) (Plasmodium falciparum)
# Assay: cell-based or functional assay
row,Binder,Max growth inhibition (%) 7G8 [%]
1,B1,58.7
2,B2,5.31
3,B3,61.2
4,B4,12.4
5,B5,29.9
6,B6,35.2
7,B7,55.5
8,B8,23.4
9,B9,39
10,B10,49.9
11,B11,56.7
12,B12,33.2
13,B13,61.9

# Molecular target: PfRH5 of Plasmodium falciparum strain FCR-1/FVO (on live parasites) (Plasmodium falciparum)
# Assay: cell-based or functional assay
row,Binder,Max growth inhibition (%) FCR-1/FVO [%]
1,B1,69.2
2,B2,11.1
3,B3,61.1
4,B4,15.1
5,B5,51.2
6,B6,67.4
7,B7,54.3
8,B8,21.9
9,B9,56.7
10,B10,19.2
11,B11,13.1
12,B12,54
13,B13,67.2

# Molecular target: PfRH5 of Plasmodium falciparum strain RF7 (on live parasites) (Plasmodium falciparum)
# Assay: cell-based or functional assay
row,Binder,Max growth inhibition (%) RF7 [%]
1,B1,31.1
2,B2,1.53
3,B3,25.7
4,B4,-7.69
5,B5,15.2
6,B6,23.6
7,B7,27.4
8,B8,3.78
9,B9,8.24
10,B10,11.9
11,B11,11.2
12,B12,11.3

# Molecular target: PfRH5 of Plasmodium falciparum strain HB3 (on live parasites) (Plasmodium falciparum)
# Assay: cell-based or functional assay
row,Binder,Max growth inhibition (%) HB3 [%]
1,B1,49.3
2,B2,15.5
3,B3,59.4
4,B4,5.62
5,B5,45.4
6,B6,39.8
7,B7,48.4
8,B8,26.8
9,B9,32.2
10,B10,52.4
11,B11,59.1
12,B12,30.1
13,B13,60.9

# Molecular target: PfRH5 of Plasmodium falciparum strain D10 (on live parasites) (Plasmodium falciparum)
# Assay: cell-based or functional assay
row,Binder,Max growth inhibition (%) D10 [%]
1,B1,73.9
2,B2,4.38
3,B3,74.4
4,B4,8.7
5,B5,35.9
6,B6,55.7
7,B7,74.9
8,B8,14.3
9,B9,44.8
10,B10,72.7
11,B11,76.5
12,B12,35.8
13,B13,79.4

# Molecular target: T1, PfRH5 of Plasmodium falciparum strain Dd2 (on live parasites) (Plasmodium falciparum)
# Assay: cell-based or functional assay
row,Binder,Max growth inhibition (%) Dd2 [%]
1,B1,61.3
2,B2,10.1
3,B3,64.7
4,B4,-15.2
5,B5,41.6
6,B6,61.3
7,B7,54
8,B8,-1.65
9,B9,42
10,B10,38.1
11,B11,47.2
12,B12,22.8
13,B13,62.7

# Molecular target: T1, PfRH5 of Plasmodium falciparum strain …
# Assay: cell-based or functional assay
# Remark: another data set of the same source
row,Binder,Maximum growth inhibition (%) Dd2 [%]
1,B3,56.9
2,B6,54.1
3,B13,56
